From patent US20220119534A1 (DRAGONFLY THERAPEUTICS, published 2022) come the findings set out here.

Substitutions are numbered along the chain they refer to. Where “and” joins values, the source holds several entries; their conditions need not be identical. Equal values may be shown once.

The target of experiment [1] is T1, human CLEC12A expressed on cells (human, UniProt Q5QGZ9 1-265).
T1 construct: Transduced isogenic cells or endogenous expression on AML cells; also called RMA-hCLEC12A; Ba/F3-hCLEC12A
T1 sequence: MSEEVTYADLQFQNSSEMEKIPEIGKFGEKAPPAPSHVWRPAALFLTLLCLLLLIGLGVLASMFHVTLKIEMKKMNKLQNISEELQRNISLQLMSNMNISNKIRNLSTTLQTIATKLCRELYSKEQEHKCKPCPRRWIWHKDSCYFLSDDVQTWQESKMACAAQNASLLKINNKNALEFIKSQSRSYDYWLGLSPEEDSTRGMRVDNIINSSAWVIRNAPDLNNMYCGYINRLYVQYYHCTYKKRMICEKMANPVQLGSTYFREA
The experiment is described as follows: flow cytometry, hCLEC12A+ Ba/F3.

For experiment [2], the target named is T1, human CLEC12A expressed on cells. The experiment is described as follows: flow cytometry on RMA-hCLEC12A cells.
For experiment [3] the target is unchanged. The experiment is described as follows: flow cytometry on HL-60 cells, fold over background.
Description: (§1) The cells were then incubated with a fluorophore conjugated anti-human IgG secondary antibody and were analyzed by flow cytometry. The mean fluorescence intensity (MFI) values were normalized to secondary antibody only controls to obtain fold over background (FOB) values.
(§2) 100,000 cells were seeded per well into a 96-well plate for FACS staining. Cells were washed with PBS. Cells were incubated in a 1:2000 dilution of live/dead dye in PBS for 15 minutes, then washed with FACS buffer. TriNKETs or mAbs were diluted into FACS buffer, and 50 μl containing diluted TriNKET or mAb was added to cells. Cells were incubated on ice for 20 minutes. After the incubation, cells were washed with FACS buffer. Anti-human IgG-Fc secondary antibody was diluted into FACS buffer, and 50 μl was added per well for detection of the bound TriNKETs or mAbs. Cells were incubated for 20 minutes on ice, then washed with FACS buffer. 50 μl of fixation buffer was added to each well, and cells were incubated for 10 minutes at room temperature. Cells were washed with FACS buffer and resuspended in FACS buffer for analysis with BD FACS Celesta SN #H66034400085, or BD FACS Celesta SN #H66034400160. Cells of interest were identified using FSC vs. SSC plot, and an appropriately shaped gate was drawn around the cells. Within the gated cells, doublet cells were removed by viewing FSC-H vs FSC-A plot. Within the single cell population, live cells were gated. Within the live gate, the mean fluorescence intensity (MFI) of each sample and the secondary-only control was calculated. Fold-over-background (FOB) was calculated as the ratio of test article MFI over secondary-only background MFI. Data were fit to a four-parameter non-linear regression curve using GraphPad Prism 7.0.
Experiment [4] shares this target. In words: flow cytometry on Ba/F3-hCLEC12A cells, fold over background.
Description: as §1, §2
The target is the same in experiment [5]. In words: flow cytometry on PL-21 cells, fold over background.
Description: as §1
100,000 cells were seeded per well into a 96-well plate for FACS staining. Cells were washed with PBS. Cells were incubated in a 1:2000 dilution of live/dead dye in PBS for 15 minutes, then washed with FACS buffer. TriNKETs or mAbs were diluted into FACS buffer, and 50 μl containing diluted TriNKET or mAb was added to cells. Cells were incubated on ice for 20 minutes. After the incubation, cells were washed with FACS buffer. Anti-human IgG-Fc secondary antibody was diluted into FACS buffer, and 50 μl was added per well for detection of the bound TriNKETs or mAbs. Cells were incubated for 20 minutes on ice, then washed with FACS buffer. 50 μl of fixation buffer was added to each well, and cells were incubated for 10 minutes at room temperature. […] Within the live gate, the mean fluorescence intensity (MFI) of each sample and the secondary-only control was calculated. Fold-over-background (FOB) was calculated as the ratio of test article MFI over secondary-only background MFI. […]
The target in experiment [6] is T2, recombinant human CLEC12A-His (human, UniProt Q5QGZ9 65-265).
T2 construct: also called hCLEC12A-His; hCLEC12A
T2 sequence: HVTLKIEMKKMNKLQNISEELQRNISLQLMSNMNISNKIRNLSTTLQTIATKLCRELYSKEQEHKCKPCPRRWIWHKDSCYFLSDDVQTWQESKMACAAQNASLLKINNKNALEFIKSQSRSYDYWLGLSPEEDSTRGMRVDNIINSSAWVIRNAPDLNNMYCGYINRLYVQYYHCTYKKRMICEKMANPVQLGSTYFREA
In words: SPR screening, semi-purified.
Description: Binding affinities of the 18 semi-purified TriNKETs for hCLEC12A were assessed by SPR in screening.

Experiment [7] concerns the target T2, recombinant human CLEC12A-His. The experiment is described as follows: SPR 37C.
Experiment [8] has the same target. The experiment is described as follows: SPR 37C, average.
The target of experiment [9] is T1, human CLEC12A expressed on cells. In words: flow cytometry, HL60.
Experiment [10] has the same target. The experiment is described as follows: flow cytometry, hCLEC12A+ Ba/F3. The source holds these as a separate data set.

B1: hcFAE-A49.CLL1-Merus (bispecific antibody, V domains shown)
VH 1: EVQLVQSGAEVKKPGASVKVSCKASGYTFTSYYMHWVRQAPGQGLEWMGIINPSGGSTSYAQKFQGRVTMTRDTSTSTVYMELSSLRSEDTAVYYCARGNYGDEFDYWGQGTLVTVSS
VL 1: not shown
VH 2: EVQLVESGGGLVKPGGSLRLSCAASGFTFSSYSMNWVRQAPGKGLEWVSSISSSSSYIYYADSVKGRFTISRDNAKNSLYLQMNSLRAEDTAVYYCARGAPMGAAAGWFDPWGQGTLVTVSS
VL 2: DIQMTQSPSSVSASVGDRVTITCRASQGISSWLAWYQQKPGKAPKLLIYAASSLQSGVPSRFSGSGSGTDFTLTISSLQPEDFATYYCQQGVSFPRTFGGGTKVEIK
notes: Duobody TriNKET: CLEC12A Fab of Merus CLL1 and NKG2D Fab A49; also called hcFAE-A49.CLL-Merus; control CLEC12A-TriNKET
For B1, in experiment [1], the half-maximal effective concentration (EC50) was 14.3 nM and the “Max MFI” value worked out at 39700 MFI. Besides, the 50% effective concentration (EC50 (read off the curve)) in experiment [2] is about 3 nM.

B2: AB0305 (antibody, IgG1, V domains shown)
VH: QLQLQESGPGLVKPSETLSLTCTVSGFSLTNYGLHWIRQPPGKGLEWIGVIWVGGATDYNPSLKSRVTISVDTSKNQFSLKLSSVQAADTAVYYCAKGDYGDTLDYWGQGTLVTVSS
VL: DIQMTQSPSSLSASVGDRVTITCHASQNINFWLSWYQQKPGKAPKLLIYEASNLHTGVPSRFSGSGSGTDFTLTISSLQPEDFATYYCQQSHSYPLTFGSGTKLEIK
notes: hIgG1 mAb; also called Humanized 1739 anti-CLEC12A mAb; parental mAb of AB0089
For the molecule B2, the entries for the “EC50 (read off the curve)” value in experiment [3] and in experiment [4] were about 0.1 nM and about 0.6 nM, respectively.

B3: AB0306 (antibody, IgG1, V domains shown)
VH: EVQLVESGGGVVQPGGSLRLSCAASGFTFNAFGMHWVRQAPGKGLEWVAFISSGSTSIYYANTVKGRFTISRDNSKNTLYLQMNSLRAEDTAVYYCARDGYPTGGAMDYWGQGTSVTVSS
VL: DIQMTQSPSSLSASVGDRVTITCKASQDIYNYLSWFQQKPGKAPKPLIYRANILVSGVPSRFSGSGSGQDYTFTISSLQPEDIATYYCLQFDAFPFTFGSGTKLEIK
notes: hIgG1 mAb; also called Humanized 1797 anti-CLEC12A mAb; parental mAb of AB0192
For B3, the “EC50 (read off the curve)” value in [3] is about 0.5 nM; in [4], about 0.8 nM.

B4: AB0300 (other, name in EU numbering)
chain: QLQLQESGPGLVKPSETLSLTCTVSGFSLTNYGLHWIRQPPGKCLEWIGVIWSGGKTDYNPSLKSRVTISKDTSKNQFSLKLSSVQAADTAVYYCAKYDYDDSLDYWGQGTLVTVSSGGGGSGGGGSGGGGSGGGGSDIQMTQSPSSLSASVGDRVTITCHASQNINFWLSWYQQKPGKAPKLLIYEASNLHTGVPSRFSGSGSGTRFTLTISSLQPEDIATYYCQQSHSYPLTFGCGTKLEIKGSDKTHTCPPCPAPEAAGGPSVFLFPPKPKDTLMISRTPEVTCVVVDVSHEDPEVKFNWYVDGVEVHNAKTKPREEQYNSTYRVVSVLTVLHQDWLNGKEYKCKVSNKALGAPIEKTISKAKGQPREPRVYTLPPCRDELTKNQVSLTCLVKGFYPSDIAVEWESNGQPENNYKTTPPVLVSDGSFTLYSKLTVDKSRWQQGNVFSCSVMHEALHNHYTQKSLSLSPG
heavy: EVQLVESGGGLVKPGGSLRLSCAASGFTFSSYSMNWVRQAPGKGLEWVSSISSSSSYIYYADSVKGRFTISRDNAKNSLYLQMNSLRAEDTAVYYCARGAPIGAAAGWFDPWGQGTLVTVSSASTKGPSVFPLAPSSKSTSGGTAALGCLVKDYFPEPVTVSWNSGALTSGVHTFPAVLQSSGLYSLSSVVTVPSSSLGTQTYICNVNHKPSNTKVDKKVEPKSCDKTHTCPPCPAPEAAGGPSVFLFPPKPKDTLMISRTPEVTCVVVDVSHEDPEVKFNWYVDGVEVHNAKTKPREEQYNSTYRVVSVLTVLHQDWLNGKEYKCKVSNKALGAPIEKTISKAKGQPREPQVCTLPPSRDELTENQVSLTCLVKGFYPSDIAVEWESNGQPENNYKTTPPVLDSDGSFFLYSWLTVDKSRWQQGNVFSCSVMHEALHNHYTQKSLSLSPG
light: DIQMTQSPSSVSASVGDRVTITCRASQGISSWLAWYQQKPGKAPKLLIYAASSLQSGVPSRFSGSGSGTDFTLTISSLQPEDFATYYCQQGVSFPRTFGGGTKVEIKRTVAAPSVFIFPPSDEQLKSGTASVVCLLNNFYPREAKVQWKVDNALQSGNSQESVTEQDSKDSTYSLSSTLTLSKADYEKHKVYACEVTHQGLSSPVTKSFNRGEC
notes: AB0237 with LALAPG in both Fc chains
For the molecule B4, the “EC50 (read off the curve)” value in experiment [5] is about 2 nM.

B5: F3'-1304 (other)
chain: DIQMTQSPSSLSASVGDRVTITCHASQNINFWLSWYQQKPGKIPKLLIYEASNLHTGVPSRFSGSGSGTRFTLTISSLQPEDIATYYCQQSHSYPLTFGCGTKLEIKGGGGSGGGGSGGGGSGGGGSQLQLQESGPGLVKPSETLSLTCTVSGFSLTNYGLHWIRQPPGKCLEWIGVIWSGGKTDYNPSLKSRVTISKDTSKNQFSLKLSSVQAADTAVYYCAKYDYDDSLDYWGQGTLVTVSSGSDKTHTCPPCPAPELLGGPSVFLFPPKPKDTLMISRTPEVTCVVVDVSHEDPEVKFNWYVDGVEVHNAKTKPREEQYNSTYRVVSVLTVLHQDWLNGKEYKCKVSNKALPAPIEKTISKAKGQPREPRVYTLPPCRDELTKNQVSLTCLVKGFYPSDIAVEWESNGQPENNYKTTPPVLVSDGSFTLYSKLTVDKSRWQQGNVFSCSVMHEALHNHYTQKSLSLSPG
heavy: B4 heavy with A239L, A240L, G334P
light: B4 light
notes: As F3'-1292
Take B5: in experiment [6], the Kd stood at 2.7 nM, the koff turned out to be 0.0013 s⁻¹ and the kon came out at 480000 M⁻¹ s⁻¹. Also, in experiment [2], the concentration for a half-maximal effect (EC50 (read off the curve)) is about 10 nM.

B6: AB0010 (other)
chain: DIQMTQSPSSVSASVGDRVTITCRASQGISSWLAWYQQKPGKAPKLLIYAASSLQSGVPSRFSGSGSGTDFTLTISSLQPEDFATYYCQQGVSFPRTFGGGTKVEIKGGGGSGGGGSGGGGSGGGGSEVQLVESGGGLVKPGGSLRLSCAASGFTFSSYSMNWVRQAPGKGLEWVSSISSSSSYIYYADSVKGRFTISRDNAKNSLYLQMNSLRAEDTAVYYCARGAPIGAAAGWFDPWGQGTLVTVSSGSDKTHTCPPCPAPELLGGPSVFLFPPKPKDTLMISRTPEVTCVVVDVSHEDPEVKFNWYVDGVEVHNAKTKPREEQYNSTYRVVSVLTVLHQDWLNGKEYKCKVSNKALPAPIEKTISKAKGQPREPRVYTLPPCRDELTKNQVSLTCLVKGFYPSDIAVEWESNGQPENNYKTTPPVLVSDGSFTLYSKLTVDKSRWQQGNVFSCSVMHEALHNHYTQKSLSLSPG
heavy: QLQLQESGPGLVKPSETLSLTCTVSGFSLTNYGLHWIRQPPGKGLEWIGVIWSGGKTDYNPSLKSRVTISKDTSKNQFSLKLSSVQAADTAVYYCAKYDYDDSLDYWGQGTLVTVSSASTKGPSVFPLAPSSKSTSGGTAALGCLVKDYFPEPVTVSWNSGALTSGVHTFPAVLQSSGLYSLSSVVTVPSSSLGTQTYICNVNHKPSNTKVDKKVEPKSCDKTHTCPPCPAPELLGGPSVFLFPPKPKDTLMISRTPEVTCVVVDVSHEDPEVKFNWYVDGVEVHNAKTKPREEQYNSTYRVVSVLTVLHQDWLNGKEYKCKVSNKALPAPIEKTISKAKGQPREPQVCTLPPSRDELTENQVSLTCLVKGFYPSDIAVEWESNGQPENNYKTTPPVLDSDGSFFLYSWLTVDKSRWQQGNVFSCSVMHEALHNHYTQKSLSLSPG
light: DIQMTQSPSSLSASVGDRVTITCHASQNINFWLSWYQQKPGKAPKLLIYEASNLHTGVPSRFSGSGSGTRFTLTISSLQPEDIATYYCQQSHSYPLTFGGGTKLEIKRTVAAPSVFIFPPSDEQLKSGTASVVCLLNNFYPREAKVQWKVDNALQSGNSQESVTEQDSKDSTYSLSSTLTLSKADYEKHKVYACEVTHQGLSSPVTKSFNRGEC
notes: NKG2D scFv-Fc, CLEC12A Fab-Fc
On to B6, for which, in [7], the Kd is 0.71 nM and 0.77 nM; the koff is 0.000508 s⁻¹ and 0.000541 s⁻¹; the kon is 715000 M⁻¹ s⁻¹ and 704000 M⁻¹ s⁻¹. For the same molecule, in [8], the dissociation constant (Kd) turned out to be 0.74 nM, the koff stood at 0.000525 s⁻¹ and the kon was 710000 M⁻¹ s⁻¹. The molecule also gave an EC50 in experiment [9] of 4.2 nM. Also, the EC50 in [10] amounted to 6.13 nM.
